Experiment [1] concerns the target HLA-A*01:01. The experiment in a line: IEDB peptide-MHC binding, purified MHC/direct/fluorescence; filed as Kd, often an IC50 or EC50 that approximates it; ≥ and ≤ were set here for values at or beyond the usual limits of such assays.
Experiment [2] concerns the target HLA-A*02:01. The description is as above.
In experiment [3] the target is HLA-A*03:01. The experiment is described as above.
The target of experiment [4] is HLA-A*11:01. Described as above.
Experiment [5] concerns the target HLA-A*29:02. The description is as above. As to conditions: source organism: Influenza A virus (A/Hong Kong/507/97(H5N1)).
Experiment [6] addresses HLA-B*08:03. Described as above.
For experiment [7], the target named is HLA-B*15:01. The description is as above.
Experiment [8] concerns the target HLA-B*18:01. The description is as above.
Experiment [9] deals with HLA-B*27:05. The experiment is described as above.
Experiment [10] has as its target HLA-B*40:01. Described as above.
Experiment [11] deals with HLA-B*44:02. Described as above.
In experiment [12] the target is HLA-B*46:01. The experiment is described as above.
Experiment [13] has as its target HLA-B*58:01. Described as above.
Experiment [14] has as its target HLA-B*08:01. The experiment in a line: IEDB peptide-MHC binding, purified MHC/competitive/fluorescence; filed as Kd, often an IC50 or EC50 that approximates it; ≥ and ≤ were set here for values at or beyond the usual limits of such assays. As to conditions: source organism: Influenza A virus (A/X-31(H3N2)).
The target in experiment [15] is HLA-B*51:01. The experiment is described as above. The following applies: source organism: Influenza A virus (A/X-31(H3N2)).
Experiment [16] concerns the target HLA-A*31:01. The experiment in a line: IEDB peptide-MHC binding, purified MHC/direct/fluorescence; filed as Kd, often an IC50 or EC50 that approximates it; ≥ and ≤ were set here for values at or beyond the usual limits of such assays.
Experiment [17] deals with HLA-A*68:02. The experiment is described as above.
Experiment [18] concerns the target HLA-B*07:02. Described as above.
The target of experiment [19] is HLA-B*15:17. Described as above.
The target in experiment [20] is HLA-B*48:01. The description is as above. As to conditions: source organism: Campylobacter jejuni RM1221.
Experiment [21] concerns the target HLA-B*57:01. The description is as above.
The target in experiment [22] is HLA-A*26:01. Described as above.
In experiment [23] the target is HLA-A*69:01. The description is as above.
Experiment [24] deals with HLA-B*08:01. The experiment is described as above.
The target of experiment [25] is HLA-B*15:02. The description is as above.
In experiment [26] the target is HLA-B*35:01. Described as above. As to conditions: source organism: Burkholderia mallei ATCC 23344.
In experiment [27] the target is HLA-A*23:01. The description is as above. As to conditions: source organism: Mammarenavirus lassaense.
Experiment [28] concerns the target HLA-A*24:02. The description is as above.
Experiment [29] deals with HLA-A*24:03. The description is as above. The following applies: source organism: Mammarenavirus lassaense.
In experiment [30] the target is HLA-A*26:02. The experiment is described as above. The following applies: source organism: Mammarenavirus lassaense.
Experiment [31] addresses HLA-A*02:06. The experiment in a line: IEDB peptide-MHC binding, purified MHC/competitive/fluorescence; filed as Kd, often an IC50 or EC50 that approximates it; ≥ and ≤ were set here for values at or beyond the usual limits of such assays. As to conditions: source organism: Mammarenavirus lassaense.
Experiment [32] has as its target HLA-B*18:01. The experiment is described as above. As to conditions: source organism: Mammarenavirus lassaense.
In experiment [33] the target is HLA-A*02:03. The experiment in a line: IEDB peptide-MHC binding, purified MHC/direct/fluorescence; filed as Kd, often an IC50 or EC50 that approximates it; ≥ and ≤ were set here for values at or beyond the usual limits of such assays. As to conditions: source organism: Vibrio vulnificus YJ016.
The target in experiment [34] is HLA-A*02:06. Described as above. As to conditions: source organism: Vibrio vulnificus YJ016.
Experiment [35] concerns the target HLA-A*02:11. The experiment is described as above. The following applies: source organism: Vibrio vulnificus YJ016.
Experiment [36] concerns the target HLA-A*02:12. Described as above. The following applies: source organism: Vibrio vulnificus YJ016.
Experiment [37] concerns the target HLA-A*02:19. The description is as above. The following applies: source organism: Vibrio vulnificus YJ016.
The mark [38] stands for this setting: source organism: Influenza A virus (A/Hong Kong/507/97(H5N1)).
Setting [39] is: source organism: Campylobacter jejuni RM1221.
Setting [40] is: source organism: Vibrio parahaemolyticus.
[41] abbreviates: source organism: Burkholderia mallei ATCC 23344.
Where [42] appears, read: source organism: Burkholderia mallei.
Where [43] appears, read: source organism: Orthohantavirus hantanense.
The mark [44] stands for this setting: source organism: Mammarenavirus lassaense.
The mark [45] stands for this setting: source organism: Vibrio cholerae.
Where [46] appears, read: source organism: Vibrio vulnificus YJ016.

As a reminder, the Kd is the free concentration of one partner at which half of the binding sites on the other are occupied at equilibrium, for simple one-to-one binding. For LAKSVFNSL, the Kd in experiment [1] (setting [38]) was not below 20 µM; in experiment [2] (setting [38]), not below 20 µM; in experiment [3] (setting [38]) it was not below 20 µM; in [4] (setting [38]), not below 20 µM; in [5] it was not below 20 µM; in experiment [6] (source organism: Influenza A virus (A/Taiwan/2/2006(H1N1))), 2.13 µM. For the same sequence, the Kd in experiment [7] (setting [38]), in experiment [8] (setting [38]), in [9] (setting [38]), in experiment [10] (setting [38]), in [11] (setting [38]) and in experiment [12] (setting [38]) was not below 20 µM in each case. Further, the Kd in [13] (setting [38]) was not below 20 µM; in [14] it was 0.726 µM; in experiment [15], not below 20 µM.

For VQKVNPAPK, the Kd is not below 20 µM in experiment [1] (setting [39]); not below 20 µM in [2] (setting [39]); 0.476 µM in [3] (setting [39]); 0.904 µM in experiment [16] (setting [39]); not below 20 µM in experiment [17] (setting [39]); not below 20 µM in [18] (setting [39]). In addition, the Kd in [6] (source organism: Campylobacter jejuni subsp. jejuni 81116) was not below 20 µM; in [7] (setting [39]) it was 1.12 µM; in experiment [19] (setting [39]), not below 20 µM; in experiment [8] (setting [39]) it was not below 20 µM; in [9] (setting [39]) it was not below 10 µM; in experiment [10] (setting [39]), not below 20 µM. Also, the Kd in experiment [12] (setting [39]), in experiment [20], in [21] (setting [39]) and in experiment [13] (setting [39]) was not below 20 µM throughout.

VQGYERIMY: the Kd in experiment [1] (setting [40]), in [2] (setting [40]), in experiment [3] (setting [40]), in experiment [4] (setting [40]), in experiment [22] (setting [40]) and in [16] (setting [40]) was not below 20 µM throughout. The Kd is not below 20 µM in [23] (setting [40]); not below 20 µM in experiment [18] (setting [40]); not below 20 µM in [24] (setting [40]); 0.271 µM in experiment [7] (setting [40]); not below 20 µM in experiment [25] (setting [40]); not below 20 µM in [9] (setting [40]). The dissociation constant (Kd) in experiment [10] (setting [40]), in [11] (setting [40]), in experiment [12] (setting [40]) and in experiment [13] (setting [40]) was not below 20 µM in each case.

Take MMYASWGVH: the Kd in experiment [18] (setting [41]) was not below 20 µM; in [7] (setting [42]) it was 0.0082 µM; in experiment [25] (setting [41]) it was 0.003 µM; in [26], 2.68 µM; in experiment [12] (setting [42]), 3.76 µM.

As to FQHERLGQF, the Kd was determined as 0.0204 µM in experiment [7] (setting [43]), 0.029 µM in experiment [25] (source organism: Hantaan virus Q32) and 0.783 µM in experiment [12] (setting [43]).

Take GYAWIDFDI: the Kd is not below 20 µM in [1] (setting [44]); not below 20 µM in [2] (setting [44]); not below 20 µM in [4] (setting [44]); 0.0039 µM in [27]; 0.0037 µM in experiment [28] (setting [44]); 0.0034 µM in experiment [29]. Moreover, the Kd in [22] (setting [44]), in experiment [30], in experiment [16] (setting [44]), in [17] (setting [44]), in experiment [18] (setting [44]) and in [24] (setting [44]) was not below 20 µM in each case. The Kd in experiment [6] (setting [44]), in experiment [7] (setting [44]), in [19] (setting [44]), in experiment [21] (setting [44]), in experiment [13] (setting [44]) and in experiment [31] was not below 20 µM each time. The Kd in experiment [32] stood at 0.408 µM.

Take VVYKEAKIK: the Kd in experiment [1] (setting [45]) was not below 20 µM; in experiment [2] (setting [45]), 0.978 µM; in experiment [33] it was 1.12 µM; in experiment [34], 0.657 µM; in experiment [35] it was 0.868 µM; in experiment [36], 1.99 µM. In addition, the Kd in experiment [37] is not below 20 µM; in experiment [3] (setting [45]), 0.313 µM; in experiment [28] (setting [45]), not below 20 µM; in experiment [22] (setting [46]) it was not below 20 µM; in experiment [23] (setting [45]), not below 20 µM; in experiment [18] (setting [45]) it was not below 20 µM. Moreover, the Kd in [24] (setting [46]), in [7] (setting [45]), in experiment [8] (setting [45]), in experiment [9] (setting [45]), in experiment [10] (setting [45]) and in [11] (setting [45]) was not below 20 µM in each case. The Kd in experiment [12] (setting [45]) and in experiment [13] (setting [45]) was not below 20 µM in each case.

The record behind these values is the Immune Epitope Database (IEDB).
